Experimental findings from PMC8244255 (Current Research in Structural Biology, 2021) are described below.

Test [1] addresses Full-length human CaM (Homo sapiens, UniProt P0DP23). Put plainly: ITC of CK peptides with full-length CaM. Format: binding.
Test [2] has as its target C-lobe fragment (CaM 76–146) (Homo sapiens, UniProt P0DP23). Put plainly: ITC of CK peptides with C-lobe fragment of CaM. Type of test: binding. The following applies: C-lobe compared to N-lobe.
Test [3] addresses Calmodulin N-terminal globular domain (N-lobe fragment, sequence 1-75) (human, UniProt P0DP23 1-75). Put plainly: ITC. (In ITC the heat of successive injections is recorded.)
For test [4], the target named is Calmodulin C-terminal globular domain (C-lobe fragment, sequence 76-146) (human, UniProt P0DP23 76-146). Put plainly: ITC.

For Ac-NLGKHEKFSEVLKRLRLQ-NH2 [CKB peptide], the stoichiometry n in test [1] (presence of Ca2+) was found to be 2. For the same molecule, in test [2], the “affinity for C-lobe relative to N-lobe (times higher)” value was “ca. 10 times”. As for “AcNH-LKRLRLQKRGTGGVDTAA-CONH2 [peptide covering CKB residues 312–329]”, the “binding to CaM” value in test [1] (at any solution conditions) was “No binding could be detected”. The term stoichiometry N denotes a count of units in the complex or per binding partner. For Ac-HLSKHPKFEEILTRLRLQ-NH2 [CKM peptide (human muscle-type creatine kinase residues 301-318)], the “stoichiometry N” value in test [3] and in test [4] was 1 peptide per fragment in each case. With Ac-NLGKHEKFSEVLKRLRLQ-NH2 [CKB peptide (human brain-type creatine kinase residues 301-318)], the “stoichiometry N” value in test [3] and in test [4] was 1 peptide per fragment each time.
